Laboratory results published in the RNAGym collection of RNA variant scans (doi:10.7554/elife.80360).

B1: HDV Ribozyme (parent)
chain: GGCCGGCAUGGUCCCAGCCUCCUCGCUGGCGCCGGCUGGGCAACAUUCCGAGGGGACCGUCCCCUCGGUAAUGGCGAAUGGGACCCA

Variants of: B1
Test: self-cleavage, relative activity (ratio to wild type); higher = more cleavage; co-transcriptional

First: C30U A71U
Second: C30U C36G
The self-cleavage of the first is higher: 0.372 for the first, 0.0941 for the second.

Compared with C30U C36A, G31A G38C is lower in self-cleavage: 0.193 for the first, 0.142 for the second.

First: G31A C32G
Second: G31A C32A
The self-cleavage of the first is higher: 0.198 for the first, 0.0941 for the second.

Going from C30U C32G to C30U C32A, the self-cleavage rises from 0.0652 to 0.155.

Compared with C30U G53U, C30U G53A is lower in self-cleavage: 0.697 for the first, 0.547 for the second.

Going from C30U G53C to G31A C66U, the self-cleavage falls from 0.554 to 0.387.

Compared with G31A C62G, G31A C62U is higher in self-cleavage: 0.317 for the first, 0.554 for the second.

Going from G31A C62A to C30U C85A, the self-cleavage falls from 0.445 to 0.441.

Compared with C30U C61U, G31A C84U is lower in self-cleavage: 0.719 for the first, 0.337 for the second.

Going from G31A C84A to C30U G54C, the self-cleavage rises from 0.326 to 0.533.

Compared with C30U G54A, G31A G82C is lower in self-cleavage: 0.571 for the first, 0.146 for the second.

First: G31A G82A
Second: C30U G31U
The self-cleavage of the first is higher: 0.166 for the first, 0.0268 for the second.

Compared with C30U G31C, G31A A45C is higher in self-cleavage: 0.13 for the first, 0.262 for the second.

First: G31A A45U
Second: C30U C48G
The self-cleavage of the first is lower: 0.185 for the first, 0.597 for the second.

Going from C30U C48A to C30U C48U, the self-cleavage falls from 0.739 to 0.506.

Compared with C30U G40A, C30U U72G is lower in self-cleavage: 0.645 for the first, 0.128 for the second.

Compared with C30U U72C, C30U U72A is higher in self-cleavage: 0.0959 for the first, 0.277 for the second.

Going from C30U G50A to G31A G81C, the self-cleavage falls from 0.728 to 0.179.

Going from G31A C58U to C30U C41G, the self-cleavage falls from 0.399 to 0.212.

First: C30U C41U
Second: C30U G76C
The self-cleavage of the first is lower: 0.447 for the first, 0.683 for the second.

Compared with C30U G76U, G31A A71U is lower in self-cleavage: 0.805 for the first, 0.447 for the second.

First: G31A A71C
Second: G31A A71G
The self-cleavage of the first is lower: 0.251 for the first, 0.432 for the second.

First: C30U U79A
Second: G31A A70C
The self-cleavage of the first is lower: 0.293 for the first, 0.407 for the second.

Compared with G31A A70U, C30U C64G is higher in self-cleavage: 0.101 for the first, 0.653 for the second.

First: C30U C64A
Second: C30U C66G
The self-cleavage of the first is lower: 0.422 for the first, 0.607 for the second.

First: G31A C64A
Second: C30U A43G
The self-cleavage of the first is higher: 0.359 for the first, 0.0755 for the second.

Compared with C30U A43C, G31A U47C is higher in self-cleavage: 0.158 for the first, 0.424 for the second.

Compared with G31A U47A, G31A G76U is higher in self-cleavage: 0.332 for the first, 0.749 for the second.

First: G31A G76A
Second: C30U G81U
The self-cleavage of the first is higher: 0.606 for the first, 0.149 for the second.

Compared with C30U G81C, C30U C84U is higher in self-cleavage: 0.148 for the first, 0.319 for the second.

First: C30U C84A
Second: C30U C84G
The self-cleavage of the first is lower: 0.252 for the first, 0.306 for the second.

First: G31A C41G
Second: G31A C41U
The self-cleavage of the first is lower: 0.106 for the first, 0.269 for the second.

First: G31A C41A
Second: C30U C63G
The self-cleavage of the first is lower: 0.273 for the first, 0.47 for the second.

Going from C30U U69C to C30U U69A, the self-cleavage falls from 0.796 to 0.594.

First: C30U G73A
Second: C30U G73C
The self-cleavage of the first is higher: 0.277 for the first, 0.136 for the second.

Compared with C30U G74C, C30U G74A is lower in self-cleavage: 0.113 for the first, 0.0329 for the second.

Compared with G31A G74A, C30U G35U is lower in self-cleavage: 0.132 for the first, 0.0219 for the second.

Compared with C30U A77C, G31A G59C is higher in self-cleavage: 0.181 for the first, 0.348 for the second.

Going from C30U G52A to G31A G39U, the self-cleavage falls from 0.621 to 0.0898.

First: G31A G39A
Second: G31A C85U
The self-cleavage of the first is lower: 0.257 for the first, 0.404 for the second.

First: G31A C85A
Second: G31A C48A
The self-cleavage of the first is lower: 0.415 for the first, 0.616 for the second.

Compared with G31A G54A, G31A G54C is lower in self-cleavage: 0.295 for the first, 0.254 for the second.

Compared with G31A G54U, G31A G35A is lower in self-cleavage: 0.197 for the first, 0.0455 for the second.

Compared with C30U C33U, G31A G53C is lower in self-cleavage: 0.369 for the first, 0.305 for the second.

First: G31A G53U
Second: G31A C33A
The self-cleavage of the first is higher: 0.346 for the first, 0.0744 for the second.

Going from G31A C33U to G31A C33G, the self-cleavage falls from 0.359 to 0.

First: C30U G67C
Second: C30U U46G
The self-cleavage of the first is higher: 0.649 for the first, 0.231 for the second.

Going from G31A C75U to C30U G59U, the self-cleavage rises from 0.122 to 0.831.

Going from C30U G59C to G31A G55U, the self-cleavage falls from 0.67 to 0.347.

Going from C30U G82U to C30U G82C, the self-cleavage falls from 0.252 to 0.102.

Compared with G31A C44A, G31A C44G is lower in self-cleavage: 0.192 for the first, 0.133 for the second.

Compared with C30U A83U, C30U A83C is higher in self-cleavage: 0.151 for the first, 0.332 for the second.

Compared with C30U A83G, C30U U60A is higher in self-cleavage: 0.302 for the first, 0.69 for the second.

Going from C30U U60C to C30U G55U, the self-cleavage falls from 0.831 to 0.789.

First: C30U G68A
Second: C30U A42U
The self-cleavage of the first is higher: 0.546 for the first, 0.0615 for the second.

First: C30U
Second: G31A C57U
The self-cleavage of the first is higher: 0.746 for the first, 0.421 for the second.

First: C30U U65A
Second: C30U U65C
The self-cleavage of the first is lower: 0.689 for the first, 0.78 for the second.

First: C30U U65G
Second: C30U U47A
The self-cleavage of the first is lower: 0.506 for the first, 0.532 for the second.

Going from C30U U47G to G31A A51U, the self-cleavage falls from 0.571 to 0.283.

Going from G31A A51C to G31A A51G, the self-cleavage rises from 0.396 to 0.554.

Going from C30U G34C to C30U G34U, the self-cleavage rises from 0.0923 to 0.135.

Compared with G31A G50A, G31A G50U is lower in self-cleavage: 0.626 for the first, 0.442 for the second.

Compared with C30U A51C, C30U A51G is higher in self-cleavage: 0.594 for the first, 0.784 for the second.

Compared with G31A C86G, G31A G67C is lower in self-cleavage: 0.573 for the first, 0.513 for the second.

Going from G31A to C30U G38U, the self-cleavage falls from 0.503 to 0.262.

First: C30U G38C
Second: G31A G40C
The self-cleavage of the first is lower: 0 for the first, 0.144 for the second.

Going from C30U C75A to G31A U37G, the self-cleavage rises from 0.0959 to 0.242.

First: G31A U37C
Second: C30U A45U
The self-cleavage of the first is higher: 0.366 for the first, 0.32 for the second.

Compared with C30U A45C, G31A A87G is higher in self-cleavage: 0.138 for the first, 0.352 for the second.

Compared with G31A A87C, C30U A70C is higher in self-cleavage: 0.385 for the first, 0.525 for the second.

Compared with C30U U37G, C30U U37A is higher in self-cleavage: 0 for the first, 0.256 for the second.

Going from C30U U37C to G31A G80A, the self-cleavage falls from 0.906 to 0.103.

First: G31A G80C
Second: G31A G34U
The self-cleavage of the first is higher: 0.185 for the first, 0.0863 for the second.

First: G31A C36G
Second: G31A C36A
The self-cleavage of the first is higher: 0.233 for the first, 0.117 for the second.

Going from G31A C49U to G31A A78U, the self-cleavage falls from 0.404 to 0.175.

Compared with G31A A78C, G31A A56G is higher in self-cleavage: 0.169 for the first, 0.369 for the second.

Compared with C30U G39U, C30U G39C is lower in self-cleavage: 0.0936 for the first, 0.0314 for the second.

Going from C30U A56G to G31A U46G, the self-cleavage falls from 0.665 to 0.0852.

Compared with G31A U46C, C30U A78C is lower in self-cleavage: 0.166 for the first, 0.0978 for the second.

Compared with C30U A78G, C30U A78U is lower in self-cleavage: 0.208 for the first, 0.101 for the second.

Compared with C30U C62G, C30U C57G is higher in self-cleavage: 0.475 for the first, 0.683 for the second.

Compared with G31A C61U, C30U C49G is lower in self-cleavage: 0.442 for the first, 0.31 for the second.

Compared with C30U C49A, G31A A43C is lower in self-cleavage: 0.698 for the first, 0.106 for the second.

For G31A A43G, the self-cleavage was 0.0386.
